Source: the supplement of paper PMC10567573

B1: HMOX1 (parent)
chain: YHIYVALEEEIERNKESPVFAPVY
B2: FEM1A (parent)
chain: NIVEYLIQEQPGQEQVAGGEAQPG

Variants of: B1
Experiment: protein stability index of a GFP-peptide fusion (GPS, HEK-293T) (PSI 1-6); higher = more stable
Conditions: c terminus: a fixed tail appended
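Note: lentivirally expressed fusions sorted by FACS into six bins by GFP to DsRed ratio, PSI derived from sequencing read proportions per bin multiplied by bin number.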

Protein stability index, by site and new letter:
V5: E 4.87; T 3.39; S 2.67; R 3.13; A 3.79; D 4.82; Q 3.94; N 3.59; W 2.12
H2: A 2.34; L 2.17; C 1.73; W 1.38; M 2.17; D 3.19; K 2.61; F 2.25; P 2.62; V 2.59; E 3.12; S 2.46; N 2.7; G 2.57; I 1.51; R 2.72; Q 3.32; T 2.18; Y 1.89
I3: S 2.26; D 2.27; E 2.33; Q 2.27; H 2.29; K 1.91; P 2.06; M 1.77; W 2.12; N 2.12; V 2.18; C 3.57; Y 1.91; R 2.43; F 2.91; L 1.92; G 2.77; A 1.42; T 1.92

Variants of: B2
Experiment: as above
Conditions: c terminus: a fixed tail appended

Protein stability index, by site and new letter:
G24: S 3.86; D 4.62; A 3.67; I 4.03; R 3.98; K 3.94; F 3.76; T 4.17; L 4.05; P 4.12; V 3.29; M 3.86; N 4.29; H 4.28; C 4.17; Q 4.37; Y 3.51; E 4.03; W 2.86
P23: H 3.98; S 4.46; K 4.29; F 3.66; T 4.14; Q 3.7; C 3.98; V 4.09; Y 3.59; G 4.19; D 4.66; I 3.94; W 3.03; E 4.74; A 4.93; M 4.33; R 3.66; N 4.25; L 4.24
E20: Y 2.34; T 3.63; R 3.79; S 3.41; F 3.46; Q 3.9; P 3.79; I 3.53; N 3.73; G 4.38; L 3.54; C 3.68; H 4.1; A 3.89; M 3.13; K 4.25; V 3.49; D 4.59; W 2.62
A21: R 4.19; G 3.86; F 4.41; T 4.67; I 3.91; M 4.16; E 4.76; S 3.83; H 3.77; V 4.15; K 4.28; N 4.7; D 4.53; P 4.27; C 4.09; L 3.95; W 3.03; Q 4.05; Y 4.03
Q22: V 4.35; P 4.02; Y 2.78; F 3.24; W 2.51; K 4.08; S 4.53; A 4.1; N 4.22; G 4.33; M 4.35; C 4.58; I 3.66; L 4.16; H 3.94; R 3.94; E 4.82; D 4.56; T 3.91
G19: A 4.24; E 5.05; C 4.06; T 4.18; S 4.65; M 3.72; P 4.16; I 3.23; N 4.43; R 3.66; Y 3.47; L 3.6; V 3.96; F 3.31; W 2.99; H 4.04; K 4.22; Q 4.09; D 4.75
G18: S 3.78; R 4.15; V 3.61; W 3.12; Y 3.36; T 4.2
